The target in experiment [1] is human SIRPα v2 expressed on cells (CHOK1 stable line KYinno KC-1720) (human) (UniProt P78324). Briefly: FACS, CHOK1-hSIRPα v2 cells. Background: Flow cytometry measures light scatter and fluorescence of single cells or particles in a stream.
Experiment [2] has as its target cyno SIRPα stably expressed on CHOK1 cells (cyno). Briefly: FACS, CHOK1-Cyno SIRPα cells.
Experiment [3] deals with T1, C57BL/6 mouse SIRPα ECD recombinant protein (6×His tagged) (C57BL/6 mouse) (UniProt P97797).
T1 sequence (looked up): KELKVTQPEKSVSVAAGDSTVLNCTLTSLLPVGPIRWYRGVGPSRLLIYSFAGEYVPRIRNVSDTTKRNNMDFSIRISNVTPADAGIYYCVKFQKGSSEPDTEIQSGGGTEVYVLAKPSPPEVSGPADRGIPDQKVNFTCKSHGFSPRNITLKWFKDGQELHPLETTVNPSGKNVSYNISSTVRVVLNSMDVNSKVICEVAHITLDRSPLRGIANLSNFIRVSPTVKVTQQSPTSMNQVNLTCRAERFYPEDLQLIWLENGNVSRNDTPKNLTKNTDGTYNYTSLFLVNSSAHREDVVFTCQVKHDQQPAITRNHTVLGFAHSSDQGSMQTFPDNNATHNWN
Briefly: ELISA, C57BL/6 mouse SIRPα ECD. Background: An ELISA detects its analyte on a solid surface through an enzyme-linked reagent.

Experiment [4] deals with human SIRPα v2 expressed on cells (CHOK1 stable line KYinno KC-1720) (human) (UniProt P78324). Briefly: competitive FACS, mFc-CD47 ECD on CHOK1-human SIRPα v2 cells.
For experiment [5] the target is unchanged. Briefly: FACS, CHOK1-hSIRPα v2 cells. This is another data set of the same source.
In experiment [6] the target is Human SIRPα v2 (antigen of the Octet and Biacore affinity measurements) (human) (UniProt P78324). Briefly: BLI (Octet), 1:1 binding model. (In BLI a coated tip is dipped into the sample, and binding shifts an interference pattern.)
Experiment [7] shares this target. Briefly: SPR (Biacore), 1:1 binding model.
In experiment [8] the target is human SIRPα v2 expressed on cells (CHOK1 stable line KYinno KC-1720) (human) (UniProt P78324). Briefly: FACS, CHOK1 cells stably expressing human SIRPα v2.
Experiment [9] addresses cyno SIRPα stably expressed on CHOK1 cells (cyno). Briefly: FACS, CHOK1-cyno SIRPα cells.

The values below come from patent US20250270315A1.

As usually defined, the EC50 is the concentration at which the effect is half-maximal. Read a low EC50 as a more potent agent. By IC50 is commonly meant the concentration that inhibits the measured activity by half. Read a low IC50 as greater potency in that assay. For orientation: Kd means the equilibrium constant for the complex coming apart. A high value points to lower affinity. One may read the koff as a measure of how fast the partners let go of each other. Usually kon stands for the rate constant with which the complex forms. A higher kon goes with fast association. Broadly, the EC50 (read off the curve) is the concentration needed to bring the measured effect to its halfway point. Read a low EC50 (read off the curve) as greater potency.

Changes are numbered by the printed parent chain. Where two headings read alike, the source gives them in different places.

B1: hu1H9G4 (antibody, V domains shown)
VH: QVQLVQSGAEVKKPGASVKVSCKASGYTFTSYWITWVKQAPGQGLEWIGDIYPGSGSTNHIEKFKSKATLTVDTSISTAYMELSRLRSDDTAVYYCATGYGSSYGYFDYWGQGTLVTVSS
VL: DIQMTQSPSSLSASVGDRVTITCRASENIYSYLAWYQQKPGKAPKLLIYTAKTLAEGVPSRFSGSGSGTDFTLTISSLQPEDFATYYCQHQYGPPFTFGQGTKLELK
In [1], B1 gave a concentration for a half-maximal effect (EC50) of 0.85 nM and a TOP MFI of 18700 MFI. Further, in experiment [2], the EC50 was 0.72 nM and the TOP MFI is 14900 MFI. In addition, the OD450 at 100 nM in [3] was 0.23 OD450. Further, in experiment [4], the IC50 was 5.61 nM and the TOP blocking (%) is 98.7%.

B2: 025c (antibody, V domains shown)
VH: EVQLQQSGAELVKPGASVKLSCTASGFNIKDYYMHWVKQRTEQGLEWIGRIDPEDGETKYAPKFQGKATITADTSSNTAYLQLSSLTSEDTAVYYCDRGLAYWGQGTLVTVSA
VL: QIVLTQSPAIMSASPGEKVTLTCSASSSVSSSYLYWYQQKPGSSPKLWIYSTSNLASGVPARFSGSGSGTSYSLTISSMEAEDAASYFCHQWSSYPYTFGGGTKLEIK
On to B2, for which, in experiment [1], the EC50 came out at 1.34 nM and the TOP MFI was determined as 51600 MFI. Also, in [5], the EC50 came to 0.99 nM and the TOP MFI was found to be 53000 MFI. In [2], this molecule gave an EC50 of 0.69 nM and a TOP MFI of 30800 MFI. In experiment [6], the Kd was 2.67 nM, the koff was 0.00293 s⁻¹ and the kon is 1.1e+06 M⁻¹ s⁻¹. Moreover, in [7], the Kd came to 1.69 nM, the koff came to 0.00254 s⁻¹ and the kon is 1.51e+06 M⁻¹ s⁻¹. In addition, the EC50 (read off the curve) in experiment [8] was 1 nM. In [4], this molecule displayed an IC50 of 0.63 nM and a TOP blocking (%) of 99.7%.

B3: 015 (antibody, V domains shown)
VH: EVQLQQSGVEVVQPGASVKLSCTASGFNIEAYYMHWVKQRTEQGLEWIGRIDPEDGESKYAPKFQGKATMTADTSSSTAYLQLSSLTSDDTAVYYCVRGSYEYWGQGTTLTVSS
VL: B2 VL with A61P, E80Q, H90Y
In experiment [9], B3 gave an MFI at 10 nM of 10800 MFI.

B4: 073 (antibody, V domains shown)
VH: QIQLVQSGPELKKPGETVKISCKASGYTFTTYGMSWVKQAPGKGLKWMVWINTYSGVPTYADDFKGRFAFSLETSASTSYLQINNLKNEDTATYFCARDPHYYGSSPAWFVYWGQGTLVTVSA
VL: DIVMTQSQKFMSTTIGDRVSITCEASQIVGIAVAWYQQKPGQSPKLLIYSASNRYTGVPDRFTGSGSGTDFTLTISNMQSEDLANYFCQQYSAYPFTFGSGTKLEVK
The molecule B4 came in with an MFI at 10 nM in experiment [9] of 7850 MFI.
